# Positions count from the first letter of the chain named.
# B1: MOR09823 (antibody, human IgG1, kappa, V domains shown)
# VH: QVQLVESGGGLVQPGGSLRLSCAASGFTFSSYAMSWVRQAPGKGLEWVSVTGAVGRTYYPDSVKGRFTISRDNSKNTLYLQMNSLRAEDTAVYYCARWGDEGFDIWGQGTLVTVSS
# VL: DIQMTQSPSSLSASVGDRVTITCRASQGISNWLAWYQQKPGKAPKLLIYGASSLQSGVPSRFSGSGSGTDFTLTISSLQPEDFAVYYCQQYSSFPTTFGQGTKVEIKR
# notes: tested as IgG
# B2: MOR09825 (antibody, human IgG1, kappa, V domains shown)
# VH: QVQLVESGGGLVQPGGSLRLSCAASGFTFSSYAMSWVRQAPGKGLEWVSAINSQGKSTYYADSVKGRFTISRDNSKNTLYLQMNSLRAEDTAVYYCARWGDEGFDIWGQGTLVTVSS
# VL: B1 VL
# notes: tested as IgG
# B3: MOR09824 (antibody, human IgG1, kappa, V domains shown)
# VH: B2 VH with A50V, N52S, S53A, Q54W, K56H, S57V, T58K
# VL: B1 VL
# notes: tested as IgG
# B4: MOR10703 (antibody, human IgG1, kappa, V domains shown)
# VH: B2 VH with Q1E, V5L
# VL: B1 VL with V85T
# notes: tested as IgG
# B5: MOR10702 (antibody, human IgG1, kappa, V domains shown)
# VH: B2 VH with Q1E, V5L, A50V, N52S, S53A, Q54W, K56H, S57V, T58K
# VL: B1 VL with V85T
# notes: tested as IgG
# B6: MOR09974 (antibody, human IgG1, kappa, V domains shown)
# VH: B2 VH with A50V, S53P, Q54S, K56N, S57F, Y59N
# VL: B1 VL
# notes: tested as IgG
# B7: MOR10701 (antibody, human IgG1, kappa, V domains shown)
# VH: B2 VH with Q1E, V5L, A50V, I51T, N52G, S53A, Q54V, K56R, A61P
# VL: B1 VL with V85T
# notes: tested as IgG
# B8: MOR10703 A50V_N52G (antibody, human IgG1, kappa, V domains shown)
# VH: B2 VH with Q1E, V5L, A50V, N52G
# VL: B1 VL with V85T
# notes: Variant of MOR10703; IgG1/kappa
# B9: MOR12610 (antibody, human IgG1, kappa, V domains shown)
# VH: B1 VH with V50G, A53P, V54Y, R56G
# VL: B1 VL
# notes: tested as IgG
# B10: MOR10703 A50V_N52S (antibody, human IgG1, kappa, V domains shown)
# VH: B2 VH with Q1E, V5L, A50V, N52S
# VL: B1 VL with V85T
# notes: as for B8
# B11: MOR10701 R55K (antibody, human IgG1, kappa, V domains shown)
# VH: B2 VH with Q1E, V5L, A50V, I51T, N52G, S53A, Q54V, A61P
# VL: B1 VL with V85T
# notes: Variant of MOR10701; IgG1/kappa
# B12: MOR10703 N52G (antibody, human IgG1, kappa, V domains shown)
# VH: B2 VH with Q1E, V5L, N52G
# VL: B1 VL with V85T
# notes: as for B8
# B13: MOR10701 R55G (antibody, human IgG1, kappa, V domains shown)
# VH: B2 VH with Q1E, V5L, A50V, I51T, N52G, S53A, Q54V, K56G, A61P
# VL: B1 VL with V85T
# notes: as for B11
# B14: MOR12609 (antibody, human IgG1, kappa, V domains shown)
# VH: B2 VH with A50V, S53G, Q54L, K56Y, S57T, Y59F
# VL: B1 VL
# notes: tested as IgG
# B15: MOR10703 N52S (antibody, human IgG1, kappa, V domains shown)
# VH: B2 VH with Q1E, V5L, N52S
# VL: B1 VL with V85T
# notes: as for B8
# Molecular target: T1, Human HER3, endogenous, on human cancer cell lines (human, UniProt P21860 20-1342)
# T1 construct: Endogenous antigen on SK-Br-3, MCF7 or BT-474 cells; also called HER3 on SK-Br-3 cells; HER3 on MCF7 cells
# Experiment: FACS titration on SK-Br-3 cells
row,EC50 [pM],Binder
1,630,B1
2,839,B2
3,324,B3
4,2450,B4

# Molecular target: T1, Human HER3, endogenous, on human cancer …
# Experiment: cell-based or functional assay
BT-474 proliferation % inhibition at 10 µg/ml IgG [%],MCF7 (neuregulin stimulated) proliferation % inhibition at 10 µg/ml IgG [%],SK-Br-3 proliferation % inhibition at 10 µg/ml IgG [%],Binder
39.8,82,39,B1
43.8,–,–,B5
37.2,63,41,B2
–,20,35,B6
36.8,82,33,B3
41.6,81,35,B4
43.6,–,–,B7

# Molecular target: T1, Human HER3, endogenous, on human cancer …
# Experiment: cell-based or functional assay
# Remark: another data set of the same source
BT-474 pAkt (S473) % inhibition [%],SK-Br-3 pAkt (S473) % inhibition [%],SK-Br-3 pAkt (S473) IC50 [pM],MCF7 pAkt (S473) IC50 [pM],Binder
57,92,55,–,B1
55,–,–,–,B5
69,91,156,294,B2
–,85,814,–,B6
46,93,62,–,B3
62,89,70,449,B4
59,–,–,–,B7

# Molecular target: T2, Hu HER3 (CD33-[Human HER3, residues 20-640]-TAG) (human, UniProt P21860 20-640)
# T2 construct: N-terminal CD33 leader is a secretion signal and is left out; also called hu HER3-Tag; HER3-Tag; not shown: C-terminal TAG (e.g. FLAG TAG)
# Experiment: solution equilibrium titration (SET), IgG
row,Kd [pM],Binder
1,9,B1
2,3,B5
3,25,B2
4,22,B8
5,37,B9
6,350,B6
7,16,B10
8,11,B11
9,60,B12
10,3,B3
11,26,B4
12,18,B13
13,10,B14
14,57,B15
15,4,B7

# Molecular target: T3, Mu HER3 (CD33-[Murine HER3, residues 20-643]-TAG) (mouse, UniProt Q61526 20-643)
# T3 construct: range 20-643; CD33 leader left out as signal; also called mu HER3-Tag; not shown: C-terminal TAG (e.g. FLAG TAG)
# Experiment: solution equilibrium titration (SET), IgG
row,Kd [pM],Binder
1,2,B1
2,5,B5
3,24,B2
4,120,B6
5,2,B3
6,20,B4
7,6,B7

# Molecular target: T4, Rat HER3 (CD33-[Rat HER3, residues 20-643]-TAG) (rat, UniProt Q62799 20-643)
# T4 construct: range 20-643; CD33 leader left out as signal; also called ra HER3-Tag; not shown: C-terminal TAG (e.g. FLAG TAG)
# Experiment: solution equilibrium titration (SET), IgG
row,Kd [pM],Binder
1,11,B1
2,6,B5
3,96,B2
4,7,B3
5,40,B4
6,10,B7

# Molecular target: T5, Cyno HER3 (CD33-[Cyno HER3, residues 20-643]-TAG) (cynomolgus, UniProt G7PIG5 20-643)
# T5 construct: range 20-643; CD33 leader left out as signal; also called cy HER3-Tag; not shown: C-terminal TAG (e.g. FLAG TAG)
# Experiment: solution equilibrium titration (SET), IgG
row,Kd [pM],Binder
1,4,B1
2,3,B5
3,56,B2
4,200,B6
5,3,B3
6,23,B4
7,4,B7

# Molecular target: T1, Human HER3, endogenous, on human cancer …
# Experiment: cell-based or functional assay
# Remark: another data set of the same source
MCF7 pHER3 % inhibition [%],MCF7 pHER3 IC50 [pM],SK-Br-3 pHER3 % inhibition [%],SK-Br-3 pHER3 IC50 [pM],Binder
89,181,59,56,B1
80,399,66,169,B2
84,126,75,192,B9
69,3070,67,1930,B6
91,103,64,110,B3
80,333,69,167,B4
86,5,71,241,B14
–,–,74,370,B7

# Molecular target: T6, HER3 K267A (CD33-[Human HER3, residues 20-640, K267A]-TAG) (human, UniProt P21860 20-640)
# T6 construct: CD33 leader left out as signal; also called HER3 K267A-Tag; not shown: C-terminal TAG
# Experiment: ELISA titration, mutant HER3-Tag coated, antibody titrated, OD450
row,binding result,Binder
1,no binding,B4

# Molecular target: T7, HER3 L268A (CD33-[Human HER3, residues 20-640, L268A]-TAG) (human, UniProt P21860 20-640)
# T7 construct: CD33 leader left out as signal; also called HER3 L268A-Tag; not shown: C-terminal TAG
# Experiment: as above
row,binding result,Binder
1,no binding,B4

# Molecular target: T2, Hu HER3 (CD33-[Human HER3, residues …)
# Experiment: ELISA titration, wild-type HER3-Tag coated, antibody titrated, OD450
row,EC50 (read off the curve) [pM],Binder
1,~300,B4

# Reference: patent US20130330324A1 (Novartis, published 2013)
